These results are taken from article PMC9674577.

The target of data set [1] is RocC24-126 (Legionella pneumophila Paris, UniProt A0A3A6VMJ3 24-126). The data set is described as follows: FP; […]; ITC: 25 mM HEPES pH 7.3, 150 mM NaCl, 10% glycerol, 1 mM TCEP, 25 C. Particulars: protein: recombinant; tags: GST removed by 3C protease; label: 5' FAM; hairpin, 5-nt 3' tail.
Data set [2] has as its target T1, FinO45-186 (Escherichia coli (F plasmid)?, UniProt P29367 45-186).
T1 sequence: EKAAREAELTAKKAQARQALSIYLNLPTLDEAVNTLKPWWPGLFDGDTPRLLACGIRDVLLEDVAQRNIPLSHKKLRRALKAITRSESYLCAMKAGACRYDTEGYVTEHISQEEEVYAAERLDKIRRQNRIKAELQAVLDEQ
The data set is described as above. Particulars: protein: recombinant; tags: GST removed by 3C protease; label: 5' FAM; hairpin, 5-nt 3' tail.

In data set [3] the target is T2, RocC14-126 (Legionella pneumophila Paris, UniProt A0A3A6VMJ3 14-126). Briefly: ITC; little if any binding; […]; ITC: 25 mM HEPES pH 7.3, 150 mM NaCl, 10% glycerol, 1 mM TCEP, 25 C. Particulars: protein: recombinant; tags: GST removed by 3C protease; hairpin, 5-nt 3' tail. (In general: Isothermal titration calorimetry measures the heat released or taken up as one component is titrated into another.)

For data set [4], the target named is T2, RocC14-126. Briefly: ITC; 1:1; […]; ITC: 25 mM HEPES pH 7.3, 150 mM NaCl, 10% glycerol, 1 mM TCEP, 25 C. Particulars: protein: recombinant; tags: GST removed by 3C protease.
For data set [5], the target named is RocC1-126 (Legionella pneumophila Paris, UniProt A0A3A6VMJ3 1-126). The data set is described as follows: EMSA; […]; ITC: 25 mM HEPES pH 7.3, 150 mM NaCl, 10% glycerol, 1 mM TCEP, 25 C. The settings on record: protein: recombinant; tags: GST removed by 3C protease; label: 5' 32P; hairpin, 5-nt 3' tail. In general terms: Mobility shift assays separate free from complexed probe on a gel.

In data set [6] the target is T2, RocC14-126. Briefly: EMSA; similar to 1-126; […]; ITC: 25 mM HEPES pH 7.3, 150 mM NaCl, 10% glycerol, 1 mM TCEP, 25 C. The settings on record: protein: recombinant; tags: GST removed by 3C protease; label: 5' 32P; hairpin, 5-nt 3' tail.

Consider UGGGUCAAUUGGCGACACACUGAUUGGCCCUUUCU (structured_RNA) [FAM-RocRSL3 (5-nt tail)], for which the binding signal in data set [1] was ~3 fold weaker than RocC1-126. Also, the binding result in data set [2] is reported as “binds”.
In the case of UGGGUCAAUUGGCGACACACUGAUUGGCCCUUUCU (structured_RNA, 3'-phosphate) [RocRP (RocRSL3 3'-phosphate)], the binding result in data set [3] is listed as “no binding”.
As to GGCCCUUUCU (ssRNA) [10-nt single-stranded RNA], the binding signal in data set [4] was ~19 fold weaker than RocR9bp-tet.
As to GGGUGGGUCAAUUGGCGACACACUGAUUGGCCCUUUCU (structured_RNA) [RocRSL3 (IVT)], the binding result in data set [5] and in data set [6] was “binds” in each case.
